Measured values published in patent US20080261863A1, “Pegylation of Vasoactive Intestinal Peptide (Vip) / Pituitary Adenylate Cyclase Activating Peptide (Pacap) Receptor 2 (Vpac2) Agonists and Methods of Use” (priority 2004, published 2008).

Biological target: VPAC2 receptor (human) (UniProt P41587)
Test: cell-based or functional assay

VPAC2 receptor (human), sequence (P41587 24-438): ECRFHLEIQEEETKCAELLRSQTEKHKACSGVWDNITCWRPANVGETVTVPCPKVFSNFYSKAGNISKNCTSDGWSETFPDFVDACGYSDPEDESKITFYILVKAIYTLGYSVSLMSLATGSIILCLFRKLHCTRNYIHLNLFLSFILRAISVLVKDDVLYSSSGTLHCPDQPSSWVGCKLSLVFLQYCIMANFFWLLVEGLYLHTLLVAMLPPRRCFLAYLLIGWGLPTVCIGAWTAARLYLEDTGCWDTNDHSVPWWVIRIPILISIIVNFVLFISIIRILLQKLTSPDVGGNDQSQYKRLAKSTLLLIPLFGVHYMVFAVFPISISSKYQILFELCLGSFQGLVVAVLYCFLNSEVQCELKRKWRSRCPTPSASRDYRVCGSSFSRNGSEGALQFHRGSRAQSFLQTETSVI

Substance: PACAP-27 (from UniProt P18509 132-158) (peptide)
- EC50 (nM), cAMP SPA, VPAC2 agonist activity: 0.09 nM
